Tests used:
[1] = target: T1, wildtype feline IL-31 protein (Feline_IL31_wildtype) (feline); test: Biacore, feline IL-31 chip, mAb 100 nM, share of points within parent mean +/-3 SD; design: key: % of mutant data points within parent mAb mean ±3 SD
T1 construct: Full length feline IL-31 with C-terminal His tag, secreted from ExpiCHO cells; also called fIL-31
T1 chain: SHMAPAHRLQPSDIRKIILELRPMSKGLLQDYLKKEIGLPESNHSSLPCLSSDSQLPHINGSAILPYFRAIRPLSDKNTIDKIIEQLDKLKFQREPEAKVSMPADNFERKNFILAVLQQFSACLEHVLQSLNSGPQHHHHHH
Source text: The mean response unit of four replicates of the parent mAb+/−3 standard deviations was used to generate parameters to define a threshold of response units comprising both the on- and off-rates antibody binding (FIG. 22). The percentage of data points for each mutant fell within this threshold was then used to define a “% similarity score” (FIG. 23).

[2] = target: T1, wildtype feline IL-31 protein …; test: cell-based or functional assay

Binder	Binding Similarity score [1]	% Inhibition Relative to Parent (pSTAT, FCWF-4 cells) [2]
A58 (antibody, V domains shown) VH: QVLLVQSGAEVRTPGASVKIFCKASGYSFTSYTIHWLRQAPAQGLEWMGNINPTSGYTENNQRFKDRLTLTADTSTNTAYMELSSLRSADTAMYYCARWGFKYDAEWSFDVWGAGTTVTVSS VL: EIQMTQSPSSLSASPGDRVTITCRASQGISIWLSWYQQKPGNIPKVLINKASNLHIGVPSRFSGSGSGTDFTLTISSLEPEDAATYYCLQSQTYPLTFGGGTKLEIK	16.7	15.3%
A63 (antibody, V domains shown) VH: QVLLVQSGAEVRTPGASVKIFCKASGYSFTSYTIHWLRQAPAQGLEWMGNINPTSGYTENNQRFKDRLTLTADTSTNTAYMELSSLRSADTAMYYCARWGFKYDGEWSADVWGAGTTVTVSS VL: EIQMTQSPSSLSASPGDRVTITCRASQGISIWLSWYQQKPGNIPKVLINKASNLHIGVPSRFSGSGSGTDFTLTISSLEPEDAATYYCLQSQTYPLTFGGGTKLEIK	2.9	-6%
A64 (antibody, V domains shown) VH: QVLLVQSGAEVRTPGASVKIFCKASGYSFTSYTIHWLRQAPAQGLEWMGNINPTSGYTENNQRFKDRLTLTADTSTNTAYMELSSLRSADTAMYYCARWGFKYDGEWSFAVWGAGTTVTVSS VL: EIQMTQSPSSLSASPGDRVTITCRASQGISIWLSWYQQKPGNIPKVLINKASNLHIGVPSRFSGSGSGTDFTLTISSLEPEDAATYYCLQSQTYPLTFGGGTKLEIK	2.7	6.9%
A65 (antibody, V domains shown) VH: QVLLVQSGAEVRTPGASVKIFCKASGYSFTSYTIHWLRQAPAQGLEWMGNINPTSGYTENNQRFKDRLTLTADTSTNTAYMELSSLRSADTAMYYCARWGFKYDGEWSFDAWGAGTTVTVSS VL: EIQMTQSPSSLSASPGDRVTITCRASQGISIWLSWYQQKPGNIPKVLINKASNLHIGVPSRFSGSGSGTDFTLTISSLEPEDAATYYCLQSQTYPLTFGGGTKLEIK	50.5	26.8%
A60 (antibody, V domains shown) VH: QVLLVQSGAEVRTPGASVKIFCKASGYSFTSYTIHWLRQAPAQGLEWMGNINPTSGYTENNQRFKDRLTLTADTSTNTAYMELSSLRSADTAMYYCARWGFKYDGEASFDVWGAGTTVTVSS VL: EIQMTQSPSSLSASPGDRVTITCRASQGISIWLSWYQQKPGNIPKVLINKASNLHIGVPSRFSGSGSGTDFTLTISSLEPEDAATYYCLQSQTYPLTFGGGTKLEIK	2.4	-8.7%
A62 (antibody, V domains shown) VH: QVLLVQSGAEVRTPGASVKIFCKASGYSFTSYTIHWLRQAPAQGLEWMGNINPTSGYTENNQRFKDRLTLTADTSTNTAYMELSSLRSADTAMYYCARWGFKYDGEWAFDVWGAGTTVTVSS VL: EIQMTQSPSSLSASPGDRVTITCRASQGISIWLSWYQQKPGNIPKVLINKASNLHIGVPSRFSGSGSGTDFTLTISSLEPEDAATYYCLQSQTYPLTFGGGTKLEIK	46.1	22.6%
